# Laboratory results reported in patent US20260250398A1.
# B1: Fab-Dia (paratopes 5016; 2540/2542) (bispecific antibody)
# heavy: EVQLVESGGGLVQPGGSLRLSCAASGFNIHSSSIHWVRQAPGKGLEWVAATYSSFGSITYADSVKGRFTISADTSKNTAYLQMNSLRAEDTAVYYCARYHHPFGYALDYWGQGTLVTVSSASTKGPSVFPLAPSSKSTSGGTAALGCLVKDYFPEPVTVSWNSGALTSGVHTFPAVLQSSGLYSLSSVVTVPSSSLGTQTYICNVNHKPSNTKVDKKVEPKSCDKTHTGGSGGEVQLVESGGGLVQPGGSLRLSCAASGFTISYSSIHWVRQAPGKGLEWVASISPYYGYTYYADSVKGRFTISADTSKNTAYLQMNSLRAEDTAVYYCARSSYFPWFSAMDYWGQGTLVTVSSGGGGSDIQMTQSPSSLSASVGDRVTITCRASQSVSSAVAWYQQKPGKAPKLLIYSASSLYSGVPSRFSGSRSGTDFTLTISSLQPEDFATYYCQQYYWPITFGQGTKVEIK
# light: DIQMTQSPSSLSASVGDRVTITCRASQSVSSAVAWYQQKPGKAPKLLIYSASSLYSGVPSRFSGSRSGTDFTLTISSLQPEDFATYYCQQGVYLFTFGQGTKVEIKRTVAAPSVFIFPPSDEQLKSGTASVVCLLNNFYPREAKVQWKVDNALQSGNSQESVTEQDSKDSTYSLSSTLTLSKADYEKHKVYACEVTHQGLSSPVTKSFNRGECGGGGSEVQLVESGGGLVQPGGSLRLSCAASGFTISSYYIHWVRQAPGKGLEWVASIYSSYGYTSYADSVKGRFTISADTSKNTAYLQMNSLRAEDTAVYYCARTVRGSKKPYFSGWAMDYWGQGTLVTVSSGGGGSDIQMTQSPSSLSASVGDRVTITCRASQSVSSAVAWYQQKPGKAPKLLIYSASSLYSGVPSRFSGSRSGTDFTLTISSLQPEDFATYYCQQYYFLITFGQGTKVEIK
# B2: CH3 (Dia-CH3-Dia; paratopes 5019; 2539) (bispecific antibody)
# chain: MNLLLILTFVAAAVAEFEVQLVESGGGLVQPGGSLRLSCAASGFNIGSSSIHWVRQAPGKGLEWVASIYSAFASTSYADSVKGRFTISADTSKNTAYLQMNSLRAEDTAVYYCARYHFPFGFALDYWGQGTLVTVSSGGGGSDIQMTQSPSSLSASVGDRVTITCRASQSVSSAVAWYQQKPGKAPKLLIYSASSLYSGVPSRFSGSRSGTDFTLTISSLQPEDFATYYCQQGVYLFTFGQGTKVEIKDKTHTKVEPKTSDKTHTCPPCPGQPREPQVYTLPPSREEMTKNQVSLTCLVKGFYPSDIAVEWESNGQPENNYKTTPPVLDSDGSFFLYSKLTVDKSRWQQGNVFSCSVMHEALHNHYTQKSLSLSPGKGTTAASGSSGGSSSGAGRTEVQLVESGGGLVQPGGSLRLSCAASGFNISYSSIHWVRQAPGKGLEWVAYISSYYGYTYYADSVKGRFTISADTSKNTAYLQMNSLRAEDTAVYYCARAHYFPWAGAMDYWGQGTLVTVSSGGGGSDIQMTQSPSSLSASVGDRVTITCRASQSVSSAVAWYQQKPGKAPKLLIYSASSLYSGVPSRFSGSRSGTDFTLTISSLQPEDFATYYCQQYSWGPFTFGQGTKVEIK
# Target: FZD1/2/4/5/7/8
# Assay: cell-based or functional assay
Binder,TOPFLASH EC50 [nM],TOPFLASH Maximal Signal (% Wnt3a maxima) (% Wnt3a maxima)
B1,0.4,42
B2,,22
